Assay results from publication PMC8298264, “Function of cofactor Akirin2 in the regulation of gene expression in model human neutrophil-like HL60 cells” (Bioscience Reports, 2021).

Test system: human HL60 cells
Assay: SWATH-MS proteomics, differential protein representation, akirin2 KO vs WT HL60 cells
Type: cell-based
Details: SWATH-MS, akirin2 KO vs WT HL60 cells, under-represented in KO
In short: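 WT and akirin2 KO HL60 lysates (150 µg, n=3 biological replicates) were FASP trypsin-digested and desalted. A spectral library was built by IDA from 3 µg digests, then 5 µg per sample went to variable-window SWATH DIA over a 120-min 5–30% acetonitrile gradient. Identifications were accepted at 1% global FDR, with total-area-sum normalization.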

Molecule	Fold Change	Log (Fold Change)
sp¦Q9HDC9¦APMAP_HUMAN (protein, UniProt Q9HDC9 2-416, looked up) Adipocyte plasma …: SEADGLRQRRPLRPQVVTDDDGQAPEAKDGSSFSGRVFRVTFLMLAVSLTVPLLGAMMLLESPIDPQPLSFKEPPLLLGVLHPNTKLRQAERLFENQLVGPESIAHIGDVMFTGTADGRVVKLENGEIETIARFGSGPCKTRDDEPVCGRPLGIRAGPNGTLFVADAYKGLFEVNPWKREVKLLLSSETPIEGKNMSFVNDLTVTQDGRKIYFTDSSSKWQRRDYLLLVMEGTDDGRLLEYDTVTREVKVLLDQLRFPNGVQLSPAEDFVLVAETTMARIRRVYVSGLMKGGADLFVENMPGFPDNIRPSSSGGYWVGMSTIRPNPGFSMLDFLSERPWIKRMIFKLFSQETVMKFVPRYSLVLELSDSGAFRRSLHDPDGLVATYISEVHEHDGHLYLGSFRSPFLCRLSLQAV	0.6899	-0.1612
sp¦P54577¦SYYC_HUMAN (protein, UniProt P54577 1-528, looked up) Tyrosine--tRNA ligase, …: MGDAPSPEEKLHLITRNLQEVLGEEKLKEILKERELKIYWGTATTGKPHVAYFVPMSKIADFLKAGCEVTILFADLHAYLDNMKAPWELLELRVSYYENVIKAMLESIGVPLEKLKFIKGTDYQLSKEYTLDVYRLSSVVTQHDSKKAGAEVVKQVEHPLLSGLLYPGLQALDEEYLKVDAQFGGIDQRKIFTFAEKYLPALGYSKRVHLMNPMVPGLTGSKMSSSEEESKIDLLDRKEDVKKKLKKAFCEPGNVENNGVLSFIKHVLFPLKSEFVILRDEKWGGNKTYTAYVDLEKDFAAEVVHPGDLKNSVEVALNKLLDPIREKFNTPALKKLASAAYPDPSKQKPMAKGPAKNSEPEEVIPSRLDIRVGKIITVEKHPDADSLYVEKIDVGEAEPRTVVSGLVQFVPKEELQDRLVVVLCNLKPQKMRGVESQGMLLCASIEGINRQVEPLDPPAGSAPGEHVFVKGYEKGQPDEELKPKKKVFEKLQADFKISEECIAQWKQTNFMTKLGSISCKSLKGGNIS	0.6907	-0.1607
sp¦O96008¦TOM40_HUMAN (protein, UniProt O96008 1-361, looked up) Mitochondrial import receptor …: MGNVLAASSPPAGPPPPPAPALVGLPPPPPSPPGFTLPPLGGSLGAGTSTSRSSERTPGAATASASGAAEDGACGCLPNPGTFEECHRKCKELFPIQMEGVKLTVNKGLSNHFQVNHTVALSTIGESNYHFGVTYVGTKQLSPTEAFPVLVGDMDNSGSLNAQVIHQLGPGLRSKMAIQTQQSKFVNWQVDGEYRGSDFTAAVTLGNPDVLVGSGILVAHYLQSITPCLALGGELVYHRRPGEEGTVMSLAGKYTLNNWLATVTLGQAGMHATYYHKASDQLQVGVEFEASTRMQDTSVSFGYQLDLPKANLLFKGSVDSNWIVGATLEKKLPPLPLTLALGAFLNHRKNKFQCGFGLTIG	0.6912	-0.1604
sp¦P61009¦SPCS3_HUMAN (protein, UniProt P61009 1-180, looked up) Signal peptidase complex …: MNTVLSRANSLFAFSLSVMAALTFGCFITTAFKDRSVPVRLHVSRIMLKNVEDFTGPRERSDLGFITFDITADLENIFDWNVKQLFLYLSAEYSTKNNALNQVVLWDKIVLRGDNPKLLLKDMKTKYFFFDDGNGLKGNRNVTLTLSWNVVPNAGILPLVTGSGHVSVPFPDTYEITKSY	0.6925	-0.1596
sp¦O75607¦NPM3_HUMAN (protein, UniProt O75607 2-178, looked up) Nucleoplasmin-3: AAGTAAALAFLSQESRTRAGGVGGLRVPAPVTMDSFFFGCELSGHTRSFTFKVEEEDDAEHVLALTMLCLTEGAKDECNVVEVVARNHDHQEIAVPVANLKLSCQPMLSLDDFQLQPPVTFRLKSGSGPVRITGRHQIVTMSNDVSEEESEEEEEDSDEEEVELCPILPAKKQGGRP	0.6936	-0.1589
sp¦Q99496¦RING2_HUMAN (protein, UniProt Q99496 2-336, looked up) E3 ubiquitin-protein ligase …: SQAVQTNGTQPLSKTWELSLYELQRTPQEAITDGLEIVVSPRSLHSELMCPICLDMLKNTMTTKECLHRFCADCIITALRSGNKECPTCRKKLVSKRSLRPDPNFDALISKIYPSRDEYEAHQERVLARINKHNNQQALSHSIEEGLKIQAMNRLQRGKKQQIENGSGAEDNGDSSHCSNASTHSNQEAGPSNKRTKTSDDSGLELDNNNAAMAIDPVMDGASEIELVFRPHPTLMEKDDSAQTRYIKTSGNATVDHLSKYLAVRLALEELRSKGESNQMNLDTASEKQYTIYIATASGQFTVLNGSFSLELVSEKYWKVNKPMELYYAPTKEHK	0.6992	-0.1554
sp¦P42167¦LAP2B_HUMAN (protein, UniProt P42167 1-454, looked up) Lamina-associated polypeptide …: MPEFLEDPSVLTKDKLKSELVANNVTLPAGEQRKDVYVQLYLQHLTARNRPPLPAGTNSKGPPDFSSDEEREPTPVLGSGAAAAGRSRAAVGRKATKKTDKPRQEDKDDLDVTELTNEDLLDQLVKYGVNPGPIVGTTRKLYEKKLLKLREQGTESRSSTPLPTISSSAENTRQNGSNDSDRYSDNEEDSKIELKLEKREPLKGRAKTPVTLKQRRVEHNQSYSQAGITETEWTSGSSKGGPLQALTRESTRGSRRTPRKRVETSEHFRIDGPVISESTPIAETIMASSNESLVVNRVTGNFKHASPILPITEFSDIPRRAPKKPLTRAEVGEKTEERRVERDILKEMFPYEASTPTGISASCRRPIKGAAGRPLELSDFRMEESFSSKYVPKYVPLADVKSEKTKKGRSIPVWIKILLFVVVAVFLFLVYQAMETNQVNPFSNFLHVDPRKSN	0.7013	-0.1541
sp¦Q9H0A0¦NAT10_HUMAN (protein, UniProt Q9H0A0 1-1025, looked up) RNA cytidine acetyltransferase: MHRKKVDNRIRILIENGVAERQRSLFVVVGDRGKDQVVILHHMLSKATVKARPSVLWCYKKELGFSSHRKKRMRQLQKKIKNGTLNIKQDDPFELFIAATNIRYCYYNETHKILGNTFGMCVLQDFEALTPNLLARTVETVEGGGLVVILLRTMNSLKQLYTVTMDVHSRYRTEAHQDVVGRFNERFILSLASCKKCLVIDDQLNILPISSHVATMEALPPQTPDESLGPSDLELRELKESLQDTQPVGVLVDCCKTLDQAKAVLKFIEGISEKTLRSTVALTAARGRGKSAALGLAIAGAVAFGYSNIFVTSPSPDNLHTLFEFVFKGFDALQYQEHLDYEIIQSLNPEFNKAVIRVNVFREHRQTIQYIHPADAVKLGQAELVVIDEAAAIPLPLVKSLLGPYLVFMASTINGYEGTGRSLSLKLIQQLRQQSAQSQVSTTAENKTTTTARLASARTLYEVSLQESIRYAPGDAVEKWLNDLLCLDCLNITRIVSGCPLPEACELYYVNRDTLFCYHKASEVFLQRLMALYVASHYKNSPNDLQMLSDAPAHHLFCLLPPVPPTQNALPEVLAVIQVCLEGEISRQSILNSLSRGKKASGDLIPWTVSEQFQDPDFGGLSGGRVVRIAVHPDYQGMGYGSRALQLLQMYYEGRFPCLEEKVLETPQEIHTVSSEAVSLLEEVITPRKDLPPLLLKLNERPAERLDYLGVSYGLTPRLLKFWKRAGFVPVYLRQTPNDLTGEHSCIMLKTLTDEDEADQGGWLAAFWKDFRRRFLALLSYQFSTFSPSLALNIIQNRNMGKPAQPALSREELEALFLPYDLKRLEMYSRNMVDYHLIMDMIPAISRIYFLNQLGDLALSAAQSALLLGIGLQHKSVDQLEKEIELPSGQLMGLFNRIIRKVVKLFNEVQEKAIEEQMVAAKDVVMEPTMKTLSDDLDEAAKEFQEKHKKEVGKLKSMDLSEYIIRGDDEEWNEVLNKAGPNASIISLKSDKKRKLEAKQEPKQSKKLKNRETKNKKDMKLKRKK	0.7033	-0.1528
sp¦Q96HE7¦ERO1A_HUMAN (protein, UniProt Q96HE7 24-468, looked up) ERO1-like protein alpha: EEQPPETAAQRCFCQVSGYLDDCTCDVETIDRFNNYRLFPRLQKLLESDYFRYYKVNLKRPCPFWNDISQCGRRDCAVKPCQSDEVPDGIKSASYKYSEEANNLIEECEQAERLGAVDESLSEETQKAVLQWTKHDDSSDNFCEADDIQSPEAEYVDLLLNPERYTGYKGPDAWKIWNVIYEENCFKPQTIKRPLNPLASGQGTSEENTFYSWLEGLCVEKRAFYRLISGLHASINVHLSARYLLQETWLEKKWGHNITEFQQRFDGILTEGEGPRRLKNLYFLYLIELRALSKVLPFFERPDFQLFTGNKIQDEENKMLLLEILHEIKSFPLHFDENSFFAGDKKEAHKLKEDFRLHFRNISRIMDCVGCFKCRLWGKLQTQGLGTALKILFSEKLIANMPESGPSYEFHLTRQEIVSLFNAFGRISTSVKELENFRNLLQNIH	0.7045	-0.1521
sp¦P33176¦KINH_HUMAN (protein, UniProt P33176 2-963, looked up) Kinesin-1 heavy chain: ADLAECNIKVMCRFRPLNESEVNRGDKYIAKFQGEDTVVIASKPYAFDRVFQSSTSQEQVYNDCAKKIVKDVLEGYNGTIFAYGQTSSGKTHTMEGKLHDPEGMGIIPRIVQDIFNYIYSMDENLEFHIKVSYFEIYLDKIRDLLDVSKTNLSVHEDKNRVPYVKGCTERFVCSPDEVMDTIDEGKSNRHVAVTNMNEHSSRSHSIFLINVKQENTQTEQKLSGKLYLVDLAGSEKVSKTGAEGAVLDEAKNINKSLSALGNVISALAEGSTYVPYRDSKMTRILQDSLGGNCRTTIVICCSPSSYNESETKSTLLFGQRAKTIKNTVCVNVELTAEQWKKKYEKEKEKNKILRNTIQWLENELNRWRNGETVPIDEQFDKEKANLEAFTVDKDITLTNDKPATAIGVIGNFTDAERRKCEEEIAKLYKQLDDKDEEINQQSQLVEKLKTQMLDQEELLASTRRDQDNMQAELNRLQAENDASKEEVKEVLQALEELAVNYDQKSQEVEDKTKEYELLSDELNQKSATLASIDAELQKLKEMTNHQKKRAAEMMASLLKDLAEIGIAVGNNDVKQPEGTGMIDEEFTVARLYISKMKSEVKTMVKRCKQLESTQTESNKKMEENEKELAACQLRISQHEAKIKSLTEYLQNVEQKKRQLEESVDALSEELVQLRAQEKVHEMEKEHLNKVQTANEVKQAVEQQIQSHRETHQKQISSLRDEVEAKAKLITDLQDQNQKMMLEQERLRVEHEKLKATDQEKSRKLHELTVMQDRREQARQDLKGLEETVAKELQTLHNLRKLFVQDLATRVKKSAEIDSDDTGGSAAQKQKISFLENNLEQLTKVHKQLVRDNADLRCELPKLEKRLRATAERVKALESALKEAKENASRDRKRYQQEVDRIKEAVRSKNMARRGHSAQIAKPIRPGQHPAASPTHPSAIRGGGAFVQNSQPVAVRGGGGKQV	0.7087	-0.1495
